From patent US7041283B1, “Methods of using immunophilin binding drugs to improve integration and survival of neuronal cell transplants” (University of Pittsburgh-Of the Commonwealth System of …, priority 2001, dated 2006)

B1: BDNF: brain-derived neurotrophic factor (Promega), neurotrophic protein (protein, UniProt P23560 129-247, looked up)
Neurotrophic factor BDNF: HSDPARRGELSVCDSISEWVTAADKKTAVDMSGGTVTVLEKVPVSKGQLKQYFYETKCNPMGYTKEGCRGIDKRHWNSQCRTTQSYVRALTMDSKKRIGWRFIRIDTSCVCTLTIKRGR
modifications: Neurotrophic factor BDNF
notes: brain-derived neurotrophic factor (Promega), neurotrophic protein

Tested on: second trimester human fetal neuroglial cultures
Assay: Second trimester human fetal neuroglial cultures treated with FK506 and/or BDNF; MAP-2/GFAP immunostaining and propidium iodide cell counts by laser confocal microscopy
Type: cell-based
Description: Surgical pathology fetal specimens were collected and processed in accordance with the University of Pittsburgh Human Tissue Committee guidelines. Human telencephalic tissues (18-21 weeks of gestation) were collected and placed in DMEM medium (Life Technologies Inc., Grand Island, N.Y.). […] Tissue processing followed a modified mouse brain dissociation protocol. Within 1 hour of collection, the brain material was placed in Ca^++-and Mg^++-free DPBS (Life Technologies), cleaned of meninges, rinsed and minced. Tissue fragments were incubated in 0.05% trypsin-EDTA with additives (Life Technologies) for 5 min at 37° C. and further dissociated. Trypsin inhibitor (10 mg/ml; Sigma, St. Louis, Mo.) was subsequently added, followed by centrifugation for 5 min at 250×g. After filtering through 70 μm nylon-mesh cell strainers (Becton Dickinson, Franklin Lakes, N.J.), the cell suspension was cleaned by gradient centrifugation through an 8% BSA (Sigma) layer (250×g, 10 min). A second filtering was performed using 70 μm and 40 μm nylon-mesh cell strainers (Becton Dickinson). The single cell suspension was counted on a hemocytometer using trypan blue exclusion, brought to a final density of 10^6 cells/ml and plated on poly-l-ornithine (Sigma) and laminin (Life Technologies) coated 12 mm glass coverslips (Fisher, Pittsburgh, PA) on 24-well plates (Becton Dickinson).
Throughout the experiments standard tissue culture techniques were used, in combination with the drug protocol. More specifically, cultures were incubated in 10% CO2 at 37° C. and fed every other day for 1, 5, 12, or 21 days with fresh NPMM (Bio Whittaker, San Diego, Calif.), followed by NPMM with or without various concentrations of FK506 (provided by Dr. A. Zeevi) and/or BDNF (5 ng/ml, Promega, Madison, Wis.).
In an attempt to identify the cell phenotype that is most affected by different treatments, the neuroglial cultures were immunostained for the neuronal marker MAP-2 and the astrocytic marker GFAP. After 7 days of treatment, cultures were washed with PBS and PBS with 0.05% Tween 20 (Sigma), fixed with 4% paraformaldehyde for 30 min and then incubated for 30 min with PBS with 0.2% BSA and 0.1% Triton X (Sigma). Without washing, cultures were incubated overnight at 4° C. with the primary antibodies mouse anti-MAP-2(1:500, Stemberger Monoclonals Inc., Baltimore, Md.) and rabbit anti-GFAP (1:100, Dako, Capinteria, Calif.). After thorough washing with PBS+0.05% Tween 20, a secondary antibody (FITC-conjugated goat anti- mouse and FITC- conjugated goat anti- rabbit) was applied for 2 hours (1:200, Jackson Immuno, West Grove, Pa.). All antibodies were diluted in common antibody diluent (ScyTek, Logan, Utah). RNase A (10 μg/ml; Sigma) was added during the secondary antibody incubation (20 min), followed by the nuclear stain propidium iodide (5 μg/ml, Sigma). Propidium iodide was used to allow quantification of cell numbers for each treatment condition, using LCM and ImageSpace software as described below. Coverslips were then washed and mounted on glass slides (Fisher) using gelvatol fluorescence mounting medium.
A quantitative assessment of the results (i.e., the numbers of cell nuclei stained with propidium iodide and areas covered by immunofluorescent marker staining) using laser confocal microscopy and ImageSpace software (Molecular Dynamics, Sunnyvale, Calif.) was carried out as follows: six randomly chosen fields were analyzed per coverslip (well). The Argon/Krypton laser confocal microscope 40× objective with oil immersion lens (Model 2001, Molecular Dynamics) was used. Images of 512×512 pixels were collected at a pixel size of […]. Vertical sections were acquired in order to define vertical borders for the collection of Z-series. The step size between adjacent sections was […]. FITC was excited with a wavelength of 488 nm and collected with a 530DF30 filter. Propidium iodide was excited with a wavelength of 568 nm and collected with a 590DFLP filter. […]

Molecule | toxic effects (higher concentrations of FK506) | neurite outgrowth / neuronal processes extension | enhancement of neuronal differentiation (5 ng/ml, 7 days of treatment) | MAP-2 surface/cell number ratio (5 ng/ml, 7 days of treatment starting at DIC 12, vs control) | GFAP surface/cell number ratio (GFAP expression) (7 days of treatment, vs control) | number of neurons (BDNF: NeuN immunostaining, unpublished observations)
C=CC[C@@H]1/C=C(\C)C[C@H](C)C[C@H](OC)[C@H]2O[C@@](O)(C(=O)C(=O)N3CCCC[C@H]3C(=O)O[C@H](/C(C)=C/[C@@H]3CC[C@@H](O)[C@H](OC)C3)[C@H](C)[C@@H](O)CC1=O)[C@H](C)C[C@@H]2OC [FK506, reference compound] | did not appear to exert toxic effects | – | – | – | – | –
B1 | – | tends to increase | not significant | not significantly different from control | decreased | modestly increasing
